Substitutions are numbered along the chain they refer to.
B1: GOMP001_bsAb_046 (bispecific antibody, human IgG1, kappa, L234A L235A)
heavy 1: QVQLVQSGAEVKKPGASVKVSCKASGYTFTSHWMHWVRKAPGQGLEWIGEFNPSNGRTNYNEEFKSKATMTVDTSTNTAYMELSSLRSEDTAVYYCASRDYDYDGRYFDYWGQGTLVTVSSASTKGPSVFPLAPSSKSTSGGTAALGCLVADYFPEPVTVSWNSGALTSGVHTFPAVLQSSGLYSLSSVVTVPSSSLGTQTYICNVNHKPSNTKVDEKVEPKSCDKTHTCPPCPAPEAAGGPSVFLFPPKPKDTLMISRTPEVTCVVVDVSHEDPEVKFNWYVDGVEVHNAKTKPREEQYNSTYRVVSVLTVLHQDWLNGKEYKCKVSNKALPAPIEKTISKAKGQPREPQVYTLPPSREEMTDNQVSLTCLVKGFYPSDIAVEWESNGQPENNYKTTPPVLMSDGSFFLASKLTVDKSRWQQGNVFSCSVMHEALHNHYTQKSLSLSPG
light 1: not shown
heavy 2: QVQLVQSGAEVKKPGASVKVSCKASGYTFTSHWMHWVRYAPGQGLEWIGEFNPSNGRTNYNEKFKSKATMTVDTSTNTAYMELSSLRSEDTAVYYCASRDYDYDGRYFDYWGRGTLVTVSSASTKGPSVFPLAPSSKSTSGGTAALGCLVKDYFPEPVTVSWNSGALTSGVHTFPAVLQSSGLYSLSSVVTVPSSSLGTQTYICNVNHKPSNTKVDKKVEPKSCDKTHTCPPCPAPEAAGGPSVFLFPPKPKDTLMISRTPEVTCVVVDVSHEDPEVKFNWYVDGVEVHNAKTKPREEQYNSTYRVVSVLTVLHQDWLNGKEYKCKVSNKALPAPIEKTISKAKGQPRRPRVYTLPPSREEMTKNQVSLVCLVKGFYPSDIAVEWESNGQPENNYKTTPPVLDSDGSFFLYSVLTVDKSRWQQGNVFSCSVMHEALHNHYTQKSLSLSPG
light 2: DIQMTQSPSSLSASVGDRVTITCSASSSVTYMYWYQRKPGDAPKLLIYDTSNLASGVPSRFSGSGSGTDYTFTISSLQPEDIATYYCQQWSSHIFTFGQGTKVEIKRTVAAPSVFIFPPSDEQLKSGTASVVCLLNNFYPREAKVQWKVDNALQSGNSQESVTEQDSKDSTYSLSSTLTLSKADYEKHKVYACEVTHQGLSSPVTKSFNRGEC
B2: GOMP001_bsAb_050 (bispecific antibody, human IgG1, kappa, L234A L235A)
heavy 1: QVQLVESGGGVVQPGRSLRLSCAASGFTFSTYGMHWVRYAPGKGLEWVAVIWYDGSHKYYADRVKGRFTISRDNSKKTLYLQMNSLRAEDTGIYYCARTGISGNMSYFYFDHWGRGILVTVSSASTKGPSVFPLAPSSKSTSGGTAALGCLVKDYFPEPVTVSWNSGALTSGVHTFPAVLQSSGLYSLSSVVTVPSSSLGTQTYICNVNHKPSNTKVDKKVEPKSCDKTHTCPPCPAPEAAGGPSVFLFPPKPKDTLMISRTPEVTCVVVDVSHEDPEVKFNWYVDGVEVHNAKTKPREEQYNSTYRVVSVLTVLHQDWLNGKEYKCKVSNKALPAPIEKTISKAKGQPRRPRVYTLPPSREEMTKNQVSLVCLVKGFYPSDIAVEWESNGQPENNYKTTPPVLDSDGSFFLYSVLTVDKSRWQQGNVFSCSVMHEALHNHYTQKSLSLSPG
light 1: not shown
heavy 2: B1 heavy 2
light 2: B1 light 2
B3: GOMP001_bsAb_011 (bispecific antibody, human IgG1, kappa, L234A L235A)
heavy 1: B1 heavy 1
light 1: B1 light 2 with D1R, R37D, D41K, E122K, S130R
heavy 2: EVQLVESGGGLVQPGGSLRLSCAASGFTLSSYTMNWVRYAPGKGLEWVSYISSSSRTIYYSDRVKGRFSISRDNAKNSLYLQMNSLRDEDTALYYCAREDYYDSSGFDNWGRGTLVTVSSASTKGPSVFPLAPSSKSTSGGTAALGCLVKDYFPEPVTVSWNSGALTSGVHTFPAVLQSSGLYSLSSVVTVPSSSLGTQTYICNVNHKPSNTKVDKKVEPKSCDKTHTCPPCPAPEAAGGPSVFLFPPKPKDTLMISRTPEVTCVVVDVSHEDPEVKFNWYVDGVEVHNAKTKPREEQYNSTYRVVSVLTVLHQDWLNGKEYKCKVSNKALPAPIEKTISKAKGQPRRPRVYTLPPSREEMTKNQVSLVCLVKGFYPSDIAVEWESNGQPENNYKTTPPVLDSDGSFFLYSVLTVDKSRWQQGNVFSCSVMHEALHNHYTQKSLSLSPG
light 2: DIRMTQSPSSFSASTGDRVTITCRASQGISSYLAWYQRKPGDAPKLLIYTASTLQSGVPSRFSGSGSGTDFTLTIRSLQSEDFATYYCQQYYSYPRTFGQGTKVEIKRTVAAPSVFIFPPSDEQLKSGTASVVCLLNNFYPREAKVQWKVDNALQSGNSQESVTEQDSKDSTYSLSSTLTLSKADYEKHKVYACEVTHQGLSSPVTKSFNRGEC
B4: GOMP001_bsAb_055 (bispecific antibody, human IgG1, kappa, L234A L235A)
heavy 1: B1 heavy 1
light 1: B1 light 2 with D1R, R37D, D41K, E122K, S130R
heavy 2: EVNLVESGGGLVQPGRSLRLSCAASGFTFDDYTMHWVRYVPGKGLEWVSNISWNSGSLGYADRVKGRFTISRDNAKDSLYLQMNSLRVEDTALYYCAKDSSGYGHYNSYYMDVWGRGTTVTVSSASTKGPSVFPLAPSSKSTSGGTAALGCLVKDYFPEPVTVSWNSGALTSGVHTFPAVLQSSGLYSLSSVVTVPSSSLGTQTYICNVNHKPSNTKVDKKVEPKSCDKTHTCPPCPAPEAAGGPSVFLFPPKPKDTLMISRTPEVTCVVVDVSHEDPEVKFNWYVDGVEVHNAKTKPREEQYNSTYRVVSVLTVLHQDWLNGKEYKCKVSNKALPAPIEKTISKAKGQPRRPRVYTLPPSREEMTKNQVSLVCLVKGFYPSDIAVEWESNGQPENNYKTTPPVLDSDGSFFLYSVLTVDKSRWQQGNVFSCSVMHEALHNHYTQKSLSLSPG
light 2: DIQMTQSPSSLSASVGDRVTITCRASQSIRNYLNWYQRKPGDAPKVLIYSASSLQSGVPSRFSGSGSGTDFTLTISSLQPEDFASFYCQQTYSTPITFGQGTRLEIKRTVAAPSVFIFPPSDEQLKSGTASVVCLLNNFYPREAKVQWKVDNALQSGNSQESVTEQDSKDSTYSLSSTLTLSKADYEKHKVYACEVTHQGLSSPVTKSFNRGEC
B5: GOMP001_bsAb_049 (bispecific antibody, human IgG1, kappa, L234A L235A)
heavy 1: B1 heavy 1
light 1: B1 light 2 with D1R, R37D, D41K, E122K, S130R
heavy 2: B2 heavy 1
light 2: not shown
B6: GOMP001_bsAb_056 (bispecific antibody, human IgG1, kappa, L234A L235A)
heavy 1: B4 heavy 2
light 1: B4 light 2
heavy 2: B1 heavy 2
light 2: B1 light 2
B7: GOMP001_bsAb_051 (bispecific antibody, human IgG1, kappa, L234A L235A)
heavy 1: B1 heavy 1
light 1: B1 light 2 with D1R, R37D, D41K, E122K, S130R
heavy 2: LRSDDTAVYYCARGVRGNYYYYYMDVWGRGTTVTVSSASTKGPSVFPLAPSSKSTSGGTAALGCLVKDYFPEPVTVSWNSGALTSGVHTFPAVLQSSGLYSLSSVVTVPSSSLGTQTYICNVNHKPSNTKVDKKVEPKSCDKTHTCPPCPAPEAAGGPSVFLFPPKPKDTLMISRTPEVTCVVVDVSHEDPEVKFNWYVDGVEVHNAKTKPREEQYNSTYRVVSVLTVLHQDWLNGKEYKCKVSNKALPAPIEKTISKAKGQPRRPRVYTLPPSREEMTKNQVSLVCLVKGFYPSDIAVEWESNGQPENNYKTTPPVLDSDGSFFLYSVLTVDKSRWQQGNVFSCSVMHEALHNHYTQKSLSLSPG
light 2: EIVLTQSPDFQSVTPKEKVTITCRASQSIGSKLHWYQRKPDDSPKLLIKYASQSFSGVPSRFSGSGSGTDFNLTINSLEAEDAATFYCHQSSGLPYTFGQGTKLEIKRTVAAPSVFIFPPSDEQLKSGTASVVCLLNNFYPREAKVQWKVDNALQSGNSQESVTEQDSKDSTYSLSSTLTLSKADYEKHKVYACEVTHQGLSSPVTKSFNRGEC

Tests used:
[1] = biological target: human EGFR, C-terminal eGFP-tagged, on CHO-K1 cells (human, UniProt P00533 25-1210); experiment: cell-based or functional assay
EGFR on HeLa cells = EGFR on HeLa cells (UniProt P00533 25-1210, limits assumed); experiment: cell-based or functional assay

| Binder | EC50 CHO-K1 EGFR Low (nM); T cell activation bioassay, luciferase [1] | EC50 CHO-K1 EGFR Med (nM); T cell activation bioassay, luciferase [1] | Max killing % (EGFR on HeLa cells) | X… HeLa EC50 (EGFR on HeLa cells) |
| --- | --- | --- | --- | --- |
| B1 | 0.02 nM | 0.00409 nM | – | – |
| B2 | 1.67 nM | 0.0606 nM | – | – |
| B3 | – | – | 77.8% | 0.0693 nM |
| B4 | 0.119 nM | 0.0139 nM | – | – |
| B5 | – | 0.138 nM | – | – |
| B6 | 0.0291 nM | 0.00412 nM | – | – |
| B7 | 1.23 nM | 0.0922 nM | – | – |
